{"source": "paper PMC6538776", "about": "“The Bacterial DNA Binding Protein MatP Involved in Linking the Nucleoid Terminal Domain to the Divisome at Midcell Interacts with Lipid Membranes” (mBio, 2018)", "binders": {"B1": {"name": "matS-Fl (matS19) (dsDNA)", "DNA 1": "AAAGTGACACTGTCACCTT", "DNA 2": "AAGGTGACAGTGTCACTTT"}, "B2": {"name": "MatP (natural protein, Escherichia coli, UniProt P0A8N0 1-150, looked up)", "chain": "MKYQQLENLESGWKWKYLVKKHREGELITRYIEASAAQEAVDVLLSLENEPVLVNGWIDKHMNPELVNRMKQTIRARRKRHFNAEHQHTRKKSIDLEFIVWQRLAGLAQRRGKTLSETIVQLIEDAENKEKYANKMSSLKQDLQALLGKE", "notes": "also called recombinant untagged MatP; not shown: His6, N-terminal, cleaved"}}, "key": {"MatP": {"molecular_target": "T1, MatP (Escherichia coli, UniProt P0A8N0 1-150)", "T1 sequence": "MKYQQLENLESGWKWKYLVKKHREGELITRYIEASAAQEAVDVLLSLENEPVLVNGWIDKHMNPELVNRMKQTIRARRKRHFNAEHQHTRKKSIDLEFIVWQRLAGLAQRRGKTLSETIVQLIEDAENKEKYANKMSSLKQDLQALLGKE", "experiment": "fluorescence anisotropy; 300 mM KCl, 5 mM MgCl2; Kd in MatP dimer units; 1 dimer per DNA; 50 mM Tris-HCl, 300 mM KCl, 5 mM MgCl2, pH 7.5; temperature not stated; matS-Fl 10 nM in anisotropy titrations", "settings": "protein: recombinant; tags: untagged (N-terminal His6 removed by thrombin); chain copies: 2; label: 5'-fluorescein on sense strand"}, "[1]": {"molecular_target": "the molecule itself", "experiment": "AUC + other: light scattering; MatP alone in solution, working buffer (50 mM Tris-HCl, 300 mM KCl, 5 mM MgCl2, pH 7.5); details in the supplement to Fig. S7"}}}
{"binder": "B1", "values": [{"measurement": "Kd", "setting": "MatP", "value": "15 ± 2", "unit": "nM"}]}
{"binder": "B2", "values": [{"measurement": "stoichiometry N", "setting": "[1]", "value": 2}]}
